Residue numbers refer to the chain shown, from its start.

In assay [1] the target is βKlotho protein (AVIVA SYSTEMS BIOLOGY). In words: ELISA on coated βKlotho, detection with anti-human IgG4 Fc-HRP, OD450.
Assay [2] shares this target. In words: BLI (Octet RED 96), biotinylated βKlotho on streptavidin probe, fusion protein at 40 nM.
Assay [3] has the same target. In words: BLI (Octet RED 96), biotinylated βKlotho on streptavidin probe.

Chain of βKlotho protein (AVIVA SYSTEMS BIOLOGY) (chain, as listed by the source): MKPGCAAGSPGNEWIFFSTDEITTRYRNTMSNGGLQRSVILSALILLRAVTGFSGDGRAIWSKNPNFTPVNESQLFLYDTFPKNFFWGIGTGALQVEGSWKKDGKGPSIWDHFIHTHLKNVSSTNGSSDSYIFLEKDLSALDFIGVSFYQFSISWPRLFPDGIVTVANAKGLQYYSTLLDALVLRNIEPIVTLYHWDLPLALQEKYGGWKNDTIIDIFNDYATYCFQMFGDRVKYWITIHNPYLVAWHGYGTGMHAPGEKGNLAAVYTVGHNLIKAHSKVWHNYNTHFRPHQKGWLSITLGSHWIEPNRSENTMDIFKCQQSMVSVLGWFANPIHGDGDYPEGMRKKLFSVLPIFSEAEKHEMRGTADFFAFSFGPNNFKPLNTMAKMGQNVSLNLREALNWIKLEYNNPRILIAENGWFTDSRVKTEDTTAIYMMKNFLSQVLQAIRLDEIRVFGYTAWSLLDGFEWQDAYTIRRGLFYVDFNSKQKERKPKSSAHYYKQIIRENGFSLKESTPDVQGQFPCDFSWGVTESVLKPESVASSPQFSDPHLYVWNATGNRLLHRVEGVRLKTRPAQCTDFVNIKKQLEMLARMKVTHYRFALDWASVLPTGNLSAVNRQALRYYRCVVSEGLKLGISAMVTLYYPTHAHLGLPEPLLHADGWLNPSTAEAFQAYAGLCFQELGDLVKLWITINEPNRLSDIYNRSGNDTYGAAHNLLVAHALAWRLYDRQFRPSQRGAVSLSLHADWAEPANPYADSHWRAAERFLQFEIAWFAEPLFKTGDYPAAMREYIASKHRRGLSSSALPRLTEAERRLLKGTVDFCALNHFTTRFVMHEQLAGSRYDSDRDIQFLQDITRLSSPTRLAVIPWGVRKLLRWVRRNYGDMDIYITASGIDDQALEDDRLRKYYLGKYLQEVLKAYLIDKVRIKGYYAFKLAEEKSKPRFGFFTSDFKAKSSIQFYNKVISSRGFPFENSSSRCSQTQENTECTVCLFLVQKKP

B1: fusion protein S5 (human IgG4 Fc - linker - FGF21 variant 98R, 167H, 171A, 175H) (Fc fusion)
chain: ESKYGPPCPPCPAPEAAGGPSVFLFPPKPKDTLMISRTPEVTCVVVDVSQEDPEVQFNWYVDGVEVHNAKTKPREEQFNSTYRVVSVLTVLHQDWLNGKEYKCKVSNKGLPSSIEKTISKAKGQPREPQVYTLPPSQEEMTKNQVSLTCLVKGFYPSDIAVEWESNGQPENNYKTTPPVLDSDGSFFLYSKLTVDKSRWQEGNVFSCSVMHEALHNHYTQKSLSLSLGGGGGSGGGGSGGGGSHPIPDSSPLLQFGGQVRQRYLYTDDAQQTEAHLEIREDGTVGGAADQSPESLLQLKALKPGVIQILGVKTSRFLCQRPDGALYGSLHFDPEACSFRERLLEDGYNVYQSEAHGLPLHLPGNKSPHRDPAPRGPARFLPLPGLPPALPEPPGILAPQPPDVGSSDPLHMVGASQGHSPSYAS
Regarding B1, the 50% effective concentration (EC50 (read off the curve)) in assay [1] is about 0.2 mg/L.

B2: fusion protein S4 (human IgG4 Fc - linker - FGF21 variant 98R, 167H, 171A, 175P) (Fc fusion)
chain: B1 chain with H418P
With B2, the “EC50 (read off the curve)” value in assay [1] was about 0.08 mg/L.

B3: fusion protein S7 (human IgG4 Fc - linker - FGF21 variant 98R, 171A) (Fc fusion)
chain: B1 chain with H410S, H418R
Take B3: in assay [2], the Kd is 0.873 nM and the Response values was 0.143.

B4: fusion protein S1 (human IgG4 Fc - linker - FGF21 variant 98R, 167H, 171A) (Fc fusion)
chain: B1 chain with H418R
notes: Purified from HEK293F cells by Protein A
B4: the “EC50 (read off the curve)” value in assay [1] was about 0.02 mg/L. In assay [2], the Kd stood at 0.63 nM and the Response values was 0.17.

B5: fusion protein S2 (human IgG4 Fc - linker - FGF21 variant 98R, 167H, 171A, 175L) (Fc fusion)
chain: B1 chain with H418L
For B5, in assay [3], the “binding ability relative to S7” value was found to be 2 fold. In assay [1], the “EC50 (read off the curve)” value was about 0.02 mg/L. In assay [2], this molecule had a Kd of 0.429 nM and a Response values of 0.19.

The values above are taken from patent US20210196794A1 (SUNSHINE LAKE PHARMA, published 2021).
